This note sets out measurements from patent US20240181125A1 (published 2024).

For orientation: Kd means the equilibrium constant for the complex coming apart. High values mean weaker binding, low ones tighter binding.

What all share (assay): ELISA-like binding assay
In general terms: An ELISA detects its analyte on a solid surface through an enzyme-linked reagent.

For one test, the target named is TβR3.
For a further test, the target named is IgG.
In test [1] the target is T1, TGFβ receptor I (TβR1), R&D, coated on ELISA plate.
T1 chain: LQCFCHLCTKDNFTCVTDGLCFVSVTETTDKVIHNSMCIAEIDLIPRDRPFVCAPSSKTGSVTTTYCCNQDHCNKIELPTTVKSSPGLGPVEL

Primed or numbered codes have the meaning given here. Ends that are not written are not given here. FITC′ = not defined here

On to ECGLLPVGRPDRVWRLCK-{FITC′} (cysteine pairing not given here) [PTβR2I], for which the Kd with TβR3 worked out at 41.1 µM; with IgG it was 83 µM. Consider ECGLLPVGRPDRVWRLCK-{FITC′} (cysteine pairing not given here) [peptide-based TGFβ receptor II inhibitor (PTβR2I), ECGLLPVGRPDRVWRLCK-FITC], for which, in test [1], the affinity, expressed as Kd, was 35.2 µM.
